According to the nanobody polyreactivity screen of Harvey et al. (2022):

Assay: yeast display, Sf9 membrane polyspecificity reagent, FACS + sequencing; frameworks hold sequencing errors
Outline: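 Genes from sorted yeast were amplified by colony PCR, read by MiSeq 2 × 250 sequencing and filtered on CDR length. These cells carried a synthetic nanobody library in Saccharomyces cerevisiae BJ5465 and were sorted by FACS into low and high (top ~1%) gates on anti-HA and streptavidin fluorescence. Polyreactivity is labelled according to the gate of origin.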

Sequence	polyreactivity (PSR sort gate)
QVQLVESGGGLVQAGGSLRLSCAASGRIFSANAMGWYRQAPGKERELVAAITRGDNTYYADSVKGRFTISRDNAKNTVYLQMNSLKPEDTAVYYCATEGYQIQYEHDYWGQGTQLTVSS	low polyreactivity
QVQLVESGGGLVEAGGSLRLSCAASGRTFRYYAMGWYRQAPGKVREFVAAISTSGGRTYYADSVKGRFTISRDNAKNTVYLQMNSLKPEDTAVYYCAAVSAPRFGMDYLGQGTQVTVSS	high polyreactivity
QVQLVESAGGLVQAGGSLRLSCAASGRIFTNNAMGWYRQAPGKERELVAAISRSGGRTYYADTVKGRFTISRDNAKNTVYVQMNSLKPEDTAVSYCAALGPYGSARRKYGYWGQGTQVTVSS	high polyreactivity
QVQLVESGGGLVQAGGSLRLSCAASGRIFGYNSMGWYRQAPGKERELVAAIRRSGGRTFYADSVKGRFTLSRDNAKNTVYLQMNRLKPEDTAVYYCAVRGPGTSTYWYHEYEYWGQGTQVTVSS	high polyreactivity
QVQLVESGGGLVQAGGSLRLSRAATGSIIASYAMGWYRQAPGKERELVSAISARGGSTYYADSVKGRFTISRDNAKNTVYLQMNSLKPEDTAVYSCAARHQQGRRISDYGYWGQGTQVTVSS	high polyreactivity
QVQLVESGGGLVQAGGSLRLSCAASGRIISSNAMGWYRQAPGKEREFVAAISWRTGSTYYADSVKGRFTISRDNAKNTVYLQMNILKPEDTAVYYCNKRNGSYCYPYYYWGQGTQVTVSS	high polyreactivity
QVQLVESGGGLVQAGGSLRLSCAASGRTFVPNTMGWYRQAPGKERELVAAIRWSVGSTYYADSVKGRFTISRDNAKNTVYLQMNSLKPEDTAVYYCAAYYSRSYLRYGMDYWGQGTQVTVSS	high polyreactivity
QVQLVESGGGLVQAGGSLRLSCAASGSISGYYAMGWYRQAPGKERELVASIRYTGARTYYADSVKGRFTSSRDNAKNTVYLQMNRLKPEDTAVFYCAADKVQYEGDAYGPPQYDYWGQGTQVTVSS	low polyreactivity
QVQLVESGGGLVQAGGSLRLSCAASGIIFAGNAMGWYRQEPGKERELVAAISSGTTTNYADSVKGRFTISRDNAKNTVYLQMNSLKPEDTAVYYCAADDFPYKSDYWGQGTQVTVSS	low polyreactivity
QVQLVESGGGLVQAGGSLRLSCAASGRTFGWKARGWYRQAPGKEMELVAAISWSGTNTYDADSVKGRFTISRDNAKNTVYLQMNSLKPEDTAVYYCAARDWTGSWNGYWSWEYNYWGQGTQVTVSS	low polyreactivity
QVQLVESGGGLVQAGGSLRLSCAASGRTFYKYAMGWYRQAPGKERELVAAITSGGGRTYYADSVKGRFTISRDNAKNTVYLQMNSLIPEDTAVYYCNAVLPLAKYEYDSWGQGTQVTVSS	high polyreactivity
QVHLVESGGGLVQAGGSLRLSCAASGRTFWYYAMGWYRPAPGKERELVAAITRTGGSTYYADSVKGRFTISRDYAKNTVYLQMNSLKPEDTAVYYCARKYSYPVVAPSDYYWGQGTQVTVSS	high polyreactivity
QVQLVESGGGLVQAGGSLRISCASSVRILGVYFMGWYRQAPGKERELVAAISGGGRTNYADSVKGRFTISRDNAKNTVYFQMNRLNPEDTAVYYCNAERPYQFYQCIYSWYYYWGQGTQVTVSS	low polyreactivity
QVQLVESGGGLVQAGGSLRLSCAASGIIFGWYAMGWYRPAPGKERELVAGISIGGSTYYADSVKGRFTISRDNANNTVYLQMNSLKPEDTAVYYCAADSYFVLPWSDYWGQGTQVTVSS	high polyreactivity
QVQLVESGGGLVQAGGSLRLSCAASGFTFWLYAMGWYRQAPGKERELVAAIDWDCGTYYADSVKGRFTISRDNAKNTVYLQMNSLKPEDTAVYYCAARYRYYYTRYDYWGQGTQVTVSS	high polyreactivity
QVQLVESGAGLVQAGGSRRLSCAASVLIFAWYAMGWSRQAPGNERELVAAITGTGSSTYYADSVKGRFTISRDNAKNTVYLLLNSLKPDDTAVYYCAPTSLPRYYYWGQGTQVTVSS	low polyreactivity
QVQLGESGGGLVQAGGTLRLTCAASGSIFNGNAMGGSRQAPGKERELVAAISRNGGSTYYAVSVKGRFTISRDNAKNTVYLQMNSQKPEDTAVYYCDTDLTVYYSYYWMYWGQGTQVTVSS	low polyreactivity
QVQLVESGGGLVQAGGSLRLTCAASGSIFRSYAMGWYRQAPGNERELVAAISWRGGRTYYADSVKGRFTISRDNAKNTVYLQRNSLKPADTAVYYCAARKRAQQGTRDHDYWGQGTQVTVSS	high polyreactivity
QVQLVESGGGLVQAGGSLRLSCAASGSTYTNAMGWYRQAPGKERELVAAITWSGGTTYYADSVKGRFTISLDNAKNTVYLPMNSLKPEDTAVYYCAAEYRWYSWGQGTQVSVSS	high polyreactivity
QVQHVESGGGLVQAGGSLRLSCAASGSIFAYNAMGCYRQARGKERELVAAITSSGGSTYYADSVKGRFTISRDNAKNTVYLPMNSLKPEDTAVYYCNAYGYFKKYNYWGQGTQVTVSS	high polyreactivity
QVQLVESGGGLVQAGGSLRLSCAASGITSYYYTMGWYRQAPGKERELVAAITSGGSTYYADSVKGRFTISRDNAKNTVYLQMNSLKPEDNAVYYCTADNPRYRGSKYGPYDDYNYWGQGTQVTVSS	low polyreactivity
QVQLVESGGGLVQAGGSLRLSCAASGRTFYRYAMGWYRQAPGKEREFVATISRSGGSTFYADSVKGRFTISRDNAKNTVYLQMNSLKPEDTAVYYWAAVGWYPYQMVYWGQGTQVTVSS	high polyreactivity

Sequence	polyreactivity (PSR sort gate)
QVQLVESGGGLVQAGGSLRLSCAASGSTFGEYAMGWYRQAPGKERELVAAITFSGGSTYYADSVKGRFTISRDNAKNTVYLQMNSLKPEDTAVYYCNADGVWVYGYRWEWLWYDYWGQGTQVTVSS	low polyreactivity
QVQLVESGGGLVQAGASLRLSCAASGFILYYYAMGWYRQAPGKERELVAAISARGGSTYYADSVKGRFTISRDNAKNTVYLQMNSLKPVDTAVYYCKKAGGYTGYTRRYEYWGQGTQVTVSS	high polyreactivity
QVQLVESGGGLVQAGGSLRLSCAASGITFKSYAMGWYRQAPGKERELVAAISRRGGSTYYADSVKGRFTISRDNAKNTVYLQMNSLKPEDTAVYYCAADSGREPKGPSRLTYWGQGTQVTVSS	high polyreactivity
QVQLVESGRGLVQAGGSLRLSCAASGFTFAGYAMGWYRQATGKERELVAAITWSGGRTYYADSVKGRFTISRDNAKNTVYLQMKSLKPEDTAVYYCAAASGRSRYEYWGQGTQVTVSS	high polyreactivity
QVQLVKSGGGLVQAGGSLRLSCAASGRIFVGYVMGWYIQAPGKARELVAAIDSGRRTNYADSVKGRFTISRDNAKNTVYLQINSLKPEDTAVYYCNREAAHGSLRWTEMEYWGQGTQVTVSS	low polyreactivity
QVQLVESGGGLVQAGGSLRLSCAASGGIFYPNVMGWYRQAPGKEREFVAAITSSSGSTYADSVKGRFTISRDNAKNTVYLQMNSLKPEDTAVYYCAAVENWWGIWVRYDYWGQGTQVTVSS	low polyreactivity
QVQLVESGGGLVQAGGSLRLSCAASGLIFLQYGLGWYRQAPGKERALVAAITTRGGRTYYADSVKGRFTISRDNANNTVYLQMNSLKPEDTAVYYCAADSEQDNLRYYRWVWYYYWGQGTQVTVSS	low polyreactivity
QVQLVESGGGLVQAGGSLRLSCAASGSTFRYNAMGWYRQAPGKERELVAAISKSGGSTYYADSVKGRFTISRDNAKNTVYLQMNSLKPEDTAVYYCAAKAYINNYDYWGQGTQVTVSS	high polyreactivity
QVQLVESGGGLVQAGGSLRLSCAASGFTFSYYAMGWYRQAPGKERELVASISRSGNTYYADSVKGRFTISRDNAKNTFYLQMNSLKPEDTAVYYCAAKRKSYYSYNFDYWGQGTQVTVSS	high polyreactivity
QVQLVESGGGLVQAGGSLRLSCAASGFIFVDYDMGWYRQAPGKERELVASINWSGGSTDYADSVKGRFTISRDNAKNTVYLQMNSLKPEDTAVYYCAAEGQDGRFYWGQGTQVTVSS	low polyreactivity
QVQLVESRGGLVQAGGSLRLSCAASGYIFGYTVMGWYRQAPGTERELVATITRGGDTNYADSVKGGFTISRDNAKNTVYLQMNSLKPEDSSVYYCAAEPVAYYGSSYGYWGQGTQVTVSS	low polyreactivity
QVQLVESGGGLVQAGGSLRLSCAASGSTFSIYAMGWYRQAPGKEREFVAAISSSSGSTYYADSVKGRFTISRDNAMNTVYLQMNSLKPEDTAVYYCIRRYRRGGVKGVYYWGQGTQVTVSS	high polyreactivity
QVQLVESGGGLVQAGGSLRLSCAASGSIFYVYAMGWYRQAPGKERELVATIDWSGGSTYYADSVKGRFTISRDNAKNTVYLQMNSLKPEDTAVYYCAAPTEQDPFAPVAFYRYDYWGQGTQVTLSS	low polyreactivity
QVQLVESGGGLVQAGGSLRLSCAASGSTFVDYAMGWYRQAPGKEREFVAAISFSGDSTYYADSVKGRFTISRDNAKNSVYLQLNSLKPEDTAVYYCAASRPYYNRQYYRSWRDDYWGQGTQVTVSS	low polyreactivity
QVHLEESGGGLVQAGGSLRLSCAASGRIPFYAMGWYRQAPGKEREFVAAIRFSGGSTFYADSVKGRFTISRDNAKNTVYLQMNSLTPEDTAVYYCAAYLYYPFYWWRDYCGQGTQVTVSS	high polyreactivity
QVQLVESGGGLVQAGGSLRLSCAASGSTFSYYAMGWYRQAPGKERELVAAIRKSGGSTYYADSVKGRFTISRDNAKNTVYLQMNSLKPEDTAVYSCAAVFSYYGWYSRYDYWGQGTQVTVSS	low polyreactivity
QVQLVESGGGLVQAGGSLRLSCAASGRIFFPNAMGWYRQAPGKERELVAAITSGSSTYYADSVKGRFTISRDNAKNTVYLQMNSLKPEDTAVYYCAARGRRGEAYRSVYYWGQGTQVTVSS	high polyreactivity
QVQHVESGGGLVHAGCRLRLSCAASGRTFIKYAMGWYRQAPGTERELVAGISGGGASTYYADSVKGRFTISRDNAKNTVYLQMNSLKPEETAVYYFAKLSPRGRRYDYWGQGTQVTVSS	high polyreactivity
QVWLQESGGGLVQACGSLSLSCAASGTISRDIFMGWYRQAPGKEREFVATIAQGGITNYADSVKGRFTISRDNAKNTVYLQKNSVKPGDTAVYYCEALDGNCYWFYYWGQGTQVTVSS	high polyreactivity
QVQLVESGGGLVQAGGSLRLSCAPSGRTLYNYAMGWTRQAPGKERELVASITWSGGSTYYADSVKGRFTISRDNAKNTVYLQMTSLKPEDTAVYYCAAESSPGTFVRYGYRRYYYWGQGTQVTVSS	low polyreactivity
QVQLVESGGGLVQAGGSLRLSCAASGRTFPNNAMGWYRQAPGKERELVAAISSGSSTDYADSVKGRFTISRDNAKNTVYLQMNSLKPEDTAVYYCNAGDYTYPGSPWPGYAYDYWGQGTQVTVSS	low polyreactivity
